Measured values from patent US20260242448A1.

Target: S protein of the SARS-CoV-2 prototype strain on pseudo-virus (SARS-CoV-2 prototype strain) (UniProt P0DTC2)
Experiment: cell-based or functional assay

Chain of LY-CoV1404 (antibody) (VH): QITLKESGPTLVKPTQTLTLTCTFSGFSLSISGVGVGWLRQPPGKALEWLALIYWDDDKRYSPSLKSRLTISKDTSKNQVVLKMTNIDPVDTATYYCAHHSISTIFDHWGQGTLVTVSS
Chain of LY-CoV1404 (antibody) (VL): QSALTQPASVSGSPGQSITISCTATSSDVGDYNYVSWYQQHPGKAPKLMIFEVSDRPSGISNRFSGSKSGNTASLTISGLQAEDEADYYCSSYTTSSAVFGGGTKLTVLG

LY-CoV1404 (antibody) was tested, and the Neutralization activity (IC50) against pseudo-virus was 1.19 ng/mL.
